This note sets out measurements from the DeepSol protein solubility set.

This data set can be described thus: soluble on expression in E. coli; label from the status in PepcDB or PDB records.
For the sequence “MGDEVGRGHFGYTCAAKIKKGARKGDAVAVKVIPKAKMTTSIAIEDVRREVKILKALAGHKNLVQFYDAYEDNDNVYIVMELCEGGELLDRILSRGGKYSEDDAKAVLVQILNVVSFCHIQGVVHRDLKPENFLFTSKDENSQLKAIDFGLSDFVKPDERLNDIVGSAYYVAPEVLHRCYSTEADVWSIGVIAYILLCGSRPFWARTESGIFRSVLKADPSYNEAPWPSLTLEAMDFVKRLLCKDPRRRMTAAQALSHPWIRNYNDIKLPLDILIFRLIKAYIRSSSLRKAALRALSKTLTVDELFYLKGQFSLLEPDRNGCITLDNIRMALTREATYAMKESRVQEILVSLSALQYRRMDFQEFCAAAVSVHQLEALDRWEQHARSAYDFFEKDGNRAIVIDELASELGLSPSVPLHVVLQDWIRHTDGKLSFLGFVKLLHGMSSRSLSKMR”, the “soluble on expression in E. coli” value is reported as “not soluble”.

For the sequence “MGDILMHYVRKAHEHEVNEVVKYPHTITNTELEEILVSGEECTVLDVREAAEFAFGHIPSATSMPLGELESLVLDKTKQIYVVCRTGNRSDVACQMLKEKGYTNVKNVIPGMIEWQGNIENLEHHHHHH”, the “soluble on expression in E. coli” value was “not soluble”.

For the sequence “MGDSEIYVSLDIGTASVKVIIAEMADDRLNIIGVGNVESSGIKKGIIIDIDKTVESIKKAIEQAERMVGVEISQVIVGVVSSQVHLEACRGIVAVGSENREITDEDVWNVMDAAQVVPLSPEREIINTIPDQFVVDGLTGITDPRGMIGVRLEMEGTLITGSKTILHNTLRCVERAGLEISDIALQPLAEASISLSEDDKEFGTALVNIGAGTTTVSVFEQGRLTYTGVIPVGGDNITKDLSLGLNTSTANADRVKLEHGYAFYDDASPDEVFAIDVIGSDQKQHFTQVEVADIIEARMEEIFQLVVEELNRVGKTHLPGGYVLTGGSMAIPGAIDLAGKTLAAHVRLAIPDYIGVREPSFTTAVGLIKYAYQMAELEGRDVSSTASEPRYDDEAPKQPKQKPKKSDDEKVSTKMKNFFGAFFE”, the “soluble on expression in E. coli” value was “not soluble”.

Regarding “MGDSFYIRTHFELEPSPPSGLGFTRGDVFHVLDTLHPGPGQSHARGGHWLAVRMGRDLREQERGIIPNQSRAEQLASLEAAQRAVGVGPGSSAGSNARAEFWRLRGLRRGAKKTTQRSREDLSALTRQGRYPPYERVVLREASFKRPVVILGPVADIAMQKLTAEMPDQFEIAETVSRTDSPSKIIKLDTVRVIAEKDKHALLDVTPSAIERLNYVQYYPIVVFFIPESRPALKALRQWLAPASRRSTRRLYAQAQKLRKHSSHLFTATIPLNGTSDTWYQELKAIIREQQTRPIWTAEDQLHHHHHH”, the “soluble on expression in E. coli” value is listed as “soluble”.

As to “MGEKLLMKGNEAIAEAALRAGCRHYFGYPITPQTEIAHYLAKKMPEVGGTFIQAESEVAAINMVYGAASAGARVLTSSSSPGISLKQEGLSYLAGAELPAVVVNIVRCGPGLGGILPAQGDYFQAVKGGGHGDYKMVVLAPSSVQELYELTVEAFNIADRYRIVSMIMGDGILGQMMEAVEFKDVENIEKIDKPWATTGTQMKREHNTITSIYIQPEVLEKHNQKLQAKYRLIEERETRVESYNCENADIIVTAFGTVARIVKNVIKMAEKEGIKVGLIRPITLWPFPTKEYEKYADVPKAFLTVELNAGQMVEDVRLAVNGKKPVYFHGRMGGMIPTQKEILDKIKEILNN”, the “soluble on expression in E. coli” value is listed as “not soluble”.

Regarding “MGELIYGEVKKQTKDGFIIDLGDNAEAYLAREEMIAKEILRPKQRMNAILYSVNREGRGAQLLLSRALEHHHHHH”, the “soluble on expression in E. coli” value was “not soluble”.

On to “MGELTDALLGKGALKTRFGSLLGQGDWGGVRVSQVEVRWVIFCLLHWLHVNLPVTEYLALDVLFPLAIVQKHSIL”, for which the “soluble on expression in E. coli” value is recorded as “not soluble”.

As for “MGESGLFDTPDQKVGLTGRPLREFPEPEPLHKHGPAKIISMCNQKGGVGKTTSTINLGACLAEAGRKVLLVDLDPQGALSAGLNIPHEELEITVYNLLVDRHTSIHQAIHHTSVDGLDLVPANIDLSAAEIQLVNEVGREQTLARALRPVMRDYDFIILDCQPSLGLLTVNALTCSHGVIIPMECEYFSLRGLALLTDTVEKVRDRLNFDLEIVGILVTMFDRRTTHAREVMSRVVEVFEDRVFDTVITRTVRFPETSVAGEPITTWAPSSQGAQQYRQLAREVIERTA”, the “soluble on expression in E. coli” value was “not soluble”.

Take “MGEYYHATVNGVVEYGAFVDLSEHVSGLIHESTYSGDPDLAVDDDVIVHLSAVRDNGDLSFEFVDPEEYRTEQRSLEHHHHHH”: the “soluble on expression in E. coli” value is reported as “not soluble”.

Turning to “MGFPIPDPYVWDPSFRTFYSIIDDEHKTLFNGIFHLAIDDNADNLGELRRCTGKHFLNEQVLMQASQYQFYDEHKKEHETFIHALDNWKGDVKWAKSWYVNHIKTIDFKYKGKI”, the “soluble on expression in E. coli” value is on record as “soluble”.

With “MGFTLKSLEFLQGVEPFRIDENHENEGASEEEEVLISAETDAGMSLMLEWKMRLSEDSDQCTTCNCPVDFGDRAVLLEHYQSLFHRTNTLRKARNMTVYTEEDFEGIENSENDLTSSQTTIGLESDDEEFDALLLPANRSFFIKNGSVFSVPRNILHVGERDVSSVTFLRPFDCAIFLWNGGHFAAAMFENDKMTVQKSFHRYVARAKQGGVQSQHDSGGKGAAKSAGAQLRRYNEQKMKEEIQSIMSSWKSRLQKTPLLFIRCAAYHRNIFFEADAGIETRDDRIRTIPFETKRPNIDEISDCWQRLQQVSEHGAESDFRAEMLEVREKRKKLARKVAGKKRKDGGMQMICEWSDDDENEDISKEKKTHHIKVRTIKKPEETVVQWPRLDDEWRQKTYNYVRQDSVEALKEHLASLNEDVTSEANDYLRNAKIPPNRSTFLHVSAANDARKCLKYFLEEVNCDSSTKDGAGLPPYSSSANSDVKSIFIDYRVKNETAGNWARTHIPEPKKKVELTEEQEREQAERKKEKKARQKEKEKLKKEIAKRDVEEMEERQKYVNMSEREKRALAVDRRLAGLPPILRCHQCGVQLPPTPFQYSHYNFCSTSCVAEHRKANPQ”, the “soluble on expression in E. coli” value is recorded as “not soluble”.

“MGFYLTSRIMKNIKSQGNGEQPAISRRHFIQASSALIALPFVSSPATAQARAVTATENRPAEKVVQTCSTFDCGGKCDIRAHVSDGIVTRISTRPDNALDAQMPVMRACVRGRAYRKFVYHPDRLKYPMKRVGKRGEGKFERISWDEATTLIADNLKSITEKYGPASRYVHVGTAVSGGTFSGDKMARRLLNLTGGYLESYHSVSMGNTAAATPYTYGIAASGSSLDTLLDTKLVILWGHNPTETIFGHTNYFLQKMKQNGTRFIVVDPRYSDTVSSLADQWIPLLPTTDNALMDAMMYVIISENLHDRAFIARYAIGFDEDSMPEGVPANESLVAYLTGAKDGVVKSPEWAEKITHVPAQTIRQLARDYANTKPAALIQGWGPQRHNCGERTARGSTLLATITGNVGIKGGWAAGYGGCANRKFAAGPEMPDNPVKAKISVMNWVQAADDASKVTPDMGLKDADKLDSNIRILFSLAGNYLANQNPDLHQAVRVLEDESKIQFIVASDLFMTPSAKYADLLLPETSFMERWNIGETWGTASYLILSEKLIEPEFERRSDYDWLREVAAKLGIENEFSQGRDEKAWIEHIWEQTRLAMPDENLPDFATLQKTRQHLFKSAPFIAFEDNIRDPENHPFPTPSGKIEIFSKRLYDMQHPEIPALSHYVPAHEGPEDALAKDFPLQLITWKGKNRANSTQYANPWLIEVQQQTLWINPQDAQKRGITHGDMVRIHNSRGICEIPAEVTPRIIPGVVAMQAGAWWQPDENGVDKGGCANVLSSARITALAKGNSHQTMLVEVAKA”: the “soluble on expression in E. coli” value is “not soluble”.

Turning to “MGGAVEVSATINNVGNYNAEEVVQLYIRDIVGNVTRPIKELKGFQRITLGKGESMVVTFKLHTDELAFYNQQMEYKPEAGLFHVWIGGDSSTTLKTEFEVTDLEHHHHHH”, the “soluble on expression in E. coli” value is reported as “not soluble”.

With “MGGDSKGTYCGAPILGPGSAPKLSTKTKFWRSSTTPLPPGTYEPAYLGGKDPRVKGGPSLQQVMRDQLKPFTEPRGKPPKPSVLEAAKKTIINVLEQTIDPPEKWSFTQACASLDKTTSSGHPHHMRKNDCWNGESFTGKLADQASKANLMFEGGKNMTPVYTGALKDELVKTDKIYGKIKKRLLWGSDLATMIRCARAFGGLMDELKAHCVTLPIRVGMNMNEDGPIIFERHSRYKYHYDADYSRWDSTQQRAVLAAALEIMVKFSSEPHLAQVVAEDLLSPSVVDVGDFKISINEGLPSGVPCTSQWNSIAHWLLTLCALSEVTNLSPDIIQANSLFSFYGDDEIVSTDIKLDPEKLTAKLKEYGLKPTRPDKTEGPLVISEDLNGLTFLRRTVTRDPAGWFGKLEQSSILRQMYWTRGPNHEDPSETMIPHSQRPIQLMSLLGEAALHGPAFYSKISKLVIAELKEGGMDFYVPRQEPMFRWMRFSDLSTWEGDRNLAPSFVNEDGVEVDKLAAALEHHHHHH”, the “soluble on expression in E. coli” value was “soluble”.

As to “MGGPEKNSTVPLPNKKRKKKTNKKKPTAPNTPTSPQAGEKNANLKNGTVTTNGSNHVERLAGRAVHSLSAIDYSGITNDVEAGGSFSLTDVFPTVIFMFVVLFCRWLNGFSQHRERLYKFEDEAVQRRRRFRVHSEESEELNDHESYSETDICTQLLASSADVTCHINVDLVNQNRFYFFVKQRNKKENSTNEEEEISSQEINTSTQNEETEVNLVFASAEDNGGVASNFDISDALMVTSNISEVSKLPETLCEEGETVQQKSVVNENDHSNEDDEQSLQSQDGSRCSDEDMNSCVSASDEEDVESQDDSFHVNDATEESIDSVSSIESQEAEESATEDLASCHSNDDKNEKDVLVDEDTSKYDNLPVEMRSAKEGEESEGTIDSSVSSSTSSSSTGDDGDDSATSYDSEDIEIQMFEYDLGTACASASISIPRPSIIPRNNKKTEVNANEERLDDLSVSPGRSDSPGGGGGGHSDSFQDPMDPGEQLGSDDEEQEDPRDYKRGGYHPVNIGDVFNARYHVIRKLGWGHFSTVWLAWDTQDKRFVAMKIVKSAEHYTEAALDEIKLLLSVRSADPNDIGCHKVVQLLDEFTVTGINGQHVAMVFEVLGCNLLKLIIRSNYRGLHLEQVRKICRQVLEALGYMHEKCGIIHTDIKPENVLITMSREEIKIMAQHAVVARKMNMKMSGSAVSTAPDHLVKMAQENMTKNKKKKMKKKAKKQREKLEAELAGLEGLKMDANGLQEAYNNAPELENFNASQVEDVTMEDTVNENGNRNKVEIRSPDRFDRTTLTPFSDPESKFGDLASPSAEYLSSPMSQLPPGGILPAPPVGPNIGDPYCDIDVKIADLGNACWVNHHYTDDIQTRQYRALEVLIGSGYGPPADIWSTACMAFELATGDYLFEPHQGDNYSRDEDHLAHISELLGAIPPSIYKKGKHWREFFHKNGHLLHIHQLKPWSLYEVLRQKYEWSHEDAQQFESFLRPMLDFDQEKRSTAKIALKHPFLLPFGGRAPKSDCPPELLSKMFPDGLIPEPFDGNEHQEVYRDENDSRSASERSANSRSAGGSDDDDEEEFNMNRPGPSGHFPIFCSRVFTFMF”, the “soluble on expression in E. coli” value is given as “soluble”.

Consider “MGGRSNSATTAAQQNAVLRIVVVGGGGVGKSALTIQFIQRYFVQDYDPTIEDSYTKQCFVDEDLCKLEILDTAGQEEFSTMREQYLRTGSGFLIVFAVTDRNSFEEVKKLHELICRIKDRDDFPIILVGNKADLENERHVARHEAEELAHRLSIPYLECSAKIRKNVDEAFFDIVRLVRKYQHDERMPIHPHDDRKLESPIKLKKKKNCRIQ”, for which the “soluble on expression in E. coli” value is given as “soluble”.

Turning to “MGGSHHHHHHGMASALRGLEEPGPRPTATPCGCVKPALETGNLLTEPVGYLESCFSAKNGTPRQPSICSYSRACLRIRKRIFNNPEHSLMGLEQFSHVWILFVFHKNGHLSCKAKVQPPRLNGAKTGVFSTRSPHRPNAIGLTLAKLEKVEGGAIYLSGIDMIHGTPVLDIKPYIAEYDSPQNVMEPLADFNLQNNQHTPNTVSQSDSKTDSCDQRQLSGCDEPQPHHSTKRKPKCPEDRTSEENYLTHSDTARIQQAFPMHREIAVDFGLESRRDQSSSVAEEQIGPYCPEKSFSEKGTDKKLERVEGAAVLQGSRAETQPMAPHCPAGRADGAPRSVVPAWVTEAPVATLEVRFTPHAEMDLGQLSSQDVGQASFKYFQSAEEAKRAIEAVLSADPRSVYRRKLCQDRLFYFTVDIAHVTCWFGDGFAEVLRIKPASEPVHMTGPVGSLVSLGS”, the “soluble on expression in E. coli” value is “not soluble”.
